These results are taken from publication PMC5929103.

What is called pKi is the Ki on a negative log10 scale, so that one unit is a factor of ten. The term pKd denotes the negative decadic logarithm of the Kd, by convention in mol/L.

pKd, pKi: −log10 of the molar value.

Assay [1] has as its target mesotrypsin (Homo sapiens) (UniProt P35030). To be noted: cited from earlier work.
For assay [2], the target named is human kallikrein-6, active (human) (UniProt Q92876). The experiment in a line: enzyme inhibition kinetics.
Assay [3] concerns the target yeast-displayed APPI_(M17G/I18F/F34V) (human). Kind of assay: flow cytometry on cells. In general terms: Flow cytometry measures light scatter and fluorescence of single cells or particles in a stream.

Sequence of UniProt P35030 (P35030 2-304): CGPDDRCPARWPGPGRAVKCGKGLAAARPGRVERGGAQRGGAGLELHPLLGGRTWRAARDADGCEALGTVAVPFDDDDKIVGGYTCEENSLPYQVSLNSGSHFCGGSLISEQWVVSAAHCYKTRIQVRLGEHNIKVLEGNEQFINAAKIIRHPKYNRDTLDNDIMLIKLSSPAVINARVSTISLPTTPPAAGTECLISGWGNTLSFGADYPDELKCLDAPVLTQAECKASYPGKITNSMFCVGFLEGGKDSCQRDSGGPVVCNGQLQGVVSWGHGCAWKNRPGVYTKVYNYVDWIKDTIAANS

Consider “APPI Kunitz domain (from UniProt P05067)”, for which, in assay [1], the pKi was 6.85. In the case of “APPI_(P13W/M17G/I18F/F34V), soluble form (designed binder)”, the pKi in assay [2] was 8.12. “catalytically inactive human anionic trypsin S195A, labelled with DyLight 650 (enzyme)” had a pKd in assay [3] of 7.38. In assay [3], “catalytically inactive human cationic trypsin S195A, labelled with DyLight 650 (enzyme)” showed a pKd of 7.51. The same measure, in the same setting: the figure for “catalytically inactive human mesotrypsin S195A, labelled with DyLight 488 (enzyme)” is 7.59.
